Experimental data published in patent US10144929B2, “Polypeptide inhibitors of Smad3 polypeptide activities” (Mayo Foundation for Medical Education and Research, priority 2016, dated 2018).

Legend:
Format in all cases: cell-based
pSmad3 = target: T1, pSmad3 (Mus musculus, UniProt Q8BUN5); assay: Nuclear import of pSmad3 (nuclear fractions Western, immunofluorescence) in AKR-2B cells; conditions: 90 minutes transduction, TGFβ 5 ng/mL 1 hour
T1 construct: endogenous in cells; host or cells: AKR-2B cells
T1 sequence (Q8BUN5 whole entry): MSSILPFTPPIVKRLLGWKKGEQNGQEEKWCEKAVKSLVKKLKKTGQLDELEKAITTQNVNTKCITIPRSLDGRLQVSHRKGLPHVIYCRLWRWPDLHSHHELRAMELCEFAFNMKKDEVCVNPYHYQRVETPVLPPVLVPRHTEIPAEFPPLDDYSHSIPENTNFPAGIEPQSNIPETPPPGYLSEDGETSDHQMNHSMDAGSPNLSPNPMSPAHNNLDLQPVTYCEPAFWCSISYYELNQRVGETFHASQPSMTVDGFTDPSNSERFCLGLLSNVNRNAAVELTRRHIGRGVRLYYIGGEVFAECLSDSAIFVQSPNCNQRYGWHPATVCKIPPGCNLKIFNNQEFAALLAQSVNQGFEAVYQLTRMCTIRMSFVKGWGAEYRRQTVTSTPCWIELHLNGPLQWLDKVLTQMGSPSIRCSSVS
Procedure: FIGS. 1A-C. SH3 domain of sorting nexin 9 (SNX9) specifically binds pSmad3 and prevents nuclear import. (A) Cartoon depicting domains in full length (FL) SNX9 and constructs used for GST pull down assays. Lysates from AKR-2B cells untreated (−) or stimulated (+) for 45 minutes with 5 ng/mL TGFβ were incubated with GST beads or the indicated fusion polypeptides immobilized on GST beads. Bound polypeptides were eluted and assessed by Western analysis for pSmad3 or pSmad2. Cell lysate reflects signal obtained from 10 μg total protein. (B) AKR-2B cells were transduced for 90 minutes with the indicated concentrations of the TAT-SNX9(SH3) fusion polypeptides. […] Quantitation of nuclear pSmads was performed with Image J software and represents the mean+/−sd of two experiments (Right). […] Quantitation of nuclear Smad3 from 30 cells in each of two experiments (Right).
(§1) FIGS. 3A-E. Inhibition of Smad3 signaling by a defined region of the SH3 domain in SNX9. […] (B) Nuclear fractions were prepared and assessed as in FIG. 1B following transduction with the indicated TAT-SNX9(SH3) fusion polypeptide (Left). Quantitation (mean+/−sd) of nuclear pSmad2 or pSmad3 from 2 experiments (Right). (C) Immunofluorescence of nuclear Smad3 was determined as in FIG. 1C from 30 cells in each of two experiments in the absence (−) or presence (+) of 5 ng/mL TGFβ and the indicated TAT-SNX9(SH3) fusion polypeptide (1.5 μM). […]

[1] = test system: Smad3 targets (PAI-1, CTGF, Smad7); assay: RT-PCR/qPCR/Western of Smad3 responsive genes in AKR-2B cells; conditions: 5 ng/mL TGFβ, 24 hours
Procedure: (§2) FIGS. 2A-C. TAT-SH3 inhibits Smad3-dependent responses. (A) AKR-2B cells were transiently transfected with a Smad3 (3TP), Smad2 (ARE), or Smad1/5/8 (BRE) reporter construct, and luciferase activity determined following 12 hours incubation in the absence (−) or presence (+) of the indicated ligand (5 ng/mL TGFβ; 10 ng/mL BMP4) or TAT-SNX9(SH3) fusion polypeptide (1.5 μM). Data represent the mean+/−SEM of three experiments. (B) RT-PCR analysis of Smad3 (PAI-1 and CTGF) and Smad2 (MMP2) responsive gene following 24 hour treatment of AKR-2B cells with the indicated concentration of TAT-SNX9(SH3) fusion polypeptide or 5 ng/mL TGFβ. Loading was verified by GAPDH expression. (C) Soft agar colony formation was performed following seven days growth in the presence (+) or absence (−) of TGFβ (10 ng/mL) or the indicated TAT-SNX9(SH3) fusion polypeptide (1.5 μM). […]
as §1

AKR-2B cells = assay: Soft agar colony formation (anchorage-independent growth, AIG); conditions: 1.5 μM polypeptide, TGFβ 10 ng/mL, seven days
Procedure: as §2, §1

pSmad2 = target: T2, pSmad2 (Mus musculus, UniProt Q62432); assay: Nuclear import of pSmad2 (nuclear fractions Western) in AKR-2B cells; conditions: 90 minutes transduction, TGFβ 5 ng/mL 1 hour
T2 construct: nuclear fractions were isolated, and Western blotted for pSmad2, pSmad3, or histone deacetylase 1 (HDAC); endogenous in cells; host or cells: AKR-2B cells
T2 sequence (Q62432 whole entry): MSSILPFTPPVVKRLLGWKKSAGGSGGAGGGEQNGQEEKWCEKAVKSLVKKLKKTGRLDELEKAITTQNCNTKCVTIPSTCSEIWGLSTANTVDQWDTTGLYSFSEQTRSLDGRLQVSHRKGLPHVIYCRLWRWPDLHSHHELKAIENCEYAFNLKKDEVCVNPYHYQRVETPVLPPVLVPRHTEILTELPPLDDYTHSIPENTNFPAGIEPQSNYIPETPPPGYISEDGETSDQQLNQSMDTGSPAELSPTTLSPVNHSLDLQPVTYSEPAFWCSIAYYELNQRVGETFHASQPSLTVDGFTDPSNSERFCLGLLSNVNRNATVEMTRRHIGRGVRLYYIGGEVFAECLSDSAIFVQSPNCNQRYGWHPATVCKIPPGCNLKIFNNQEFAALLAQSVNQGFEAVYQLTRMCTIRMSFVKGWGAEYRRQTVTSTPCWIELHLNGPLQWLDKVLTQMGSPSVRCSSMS
Procedure: FIGS. 1A-C. SH3 domain of sorting nexin 9 (SNX9) specifically binds pSmad3 and prevents nuclear import. (A) Cartoon depicting domains in full length (FL) SNX9 and constructs used for GST pull down assays. Lysates from AKR-2B cells untreated (−) or stimulated (+) for 45 minutes with 5 ng/mL TGFβ were incubated with GST beads or the indicated fusion polypeptides immobilized on GST beads. Bound polypeptides were eluted and assessed by Western analysis for pSmad3 or pSmad2. Cell lysate reflects signal obtained from 10 μg total protein. (B) AKR-2B cells were transduced for 90 minutes with the indicated concentrations of the TAT-SNX9(SH3) fusion polypeptides. Following washing and 1 hour TGFβ (5 ng/mL) treatment, nuclear fractions were isolated, and Western blotted for pSmad2, pSmad3, or histone deacetylase 1 (HDAC) (Left). Quantitation of nuclear pSmads was performed with Image J software and represents the mean+/−sd of two experiments (Right). (C) AKR-2B cells were transduced as in (B) with TAT-SH3 or TAT-LC (1.8 μM) and treated+/−TGFβ (5 ng/mL) for 1 hour. Immunofluorescence for Smad3 or the HA-tagged TAT-SNX9(SH3) fusion polypeptide was performed, and nuclei were stained with DAPI (Left panels). Quantitation of nuclear Smad3 from 30 cells in each of two experiments (Right).
AKR-2B cells were grown in DMEM supplemented with 10% fetal bovine serum (FBS). […]

Smad3 (3TP) reporter = assay: Smad3 (3TP) luciferase reporter assay in AKR-2B cells; conditions: 1.5 μM polypeptide, 5 ng/mL TGFβ, 12 hours
Procedure: (§3) FIGS. 2A-C. TAT-SH3 inhibits Smad3-dependent responses. (A) AKR-2B cells were transiently transfected with a Smad3 (3TP), Smad2 (ARE), or Smad1/5/8 (BRE) reporter construct, and luciferase activity determined following 12 hours incubation in the absence (−) or presence (+) of the indicated ligand (5 ng/mL TGFβ; 10 ng/mL BMP4) or TAT-SNX9(SH3) fusion polypeptide (1.5 μM). Data represent the mean+/−SEM of three experiments. (B) RT-PCR analysis of Smad3 (PAI-1 and CTGF) and Smad2 (MMP2) responsive gene following 24 hour treatment of AKR-2B cells with the indicated concentration of TAT-SNX9(SH3) fusion polypeptide or 5 ng/mL TGFβ. Loading was verified by GAPDH expression. (C) Soft agar colony formation was performed following seven days growth in the presence (+) or absence (−) of TGFβ (10 ng/mL) or the indicated TAT-SNX9(SH3) fusion polypeptide (1.5 μM). Data reflects the mean+/−sd of triplicate wells from three experiments.
(§4) For luciferase assays, 2×10^5 cells were plated in six well plates containing 10% FBS/DMEM. […] Cells were harvested in 200 μL of reporter lysis buffer (Promega, Madison, Wis.), and luciferase activity was determined in a Berthold Lumat 9507 luminometer after normalization for transfection efficiency with β-galactosidase.

Smad2 (ARE) reporter = assay: Smad2 (ARE) luciferase reporter assay in AKR-2B cells; conditions: 1.5 μM polypeptide, 5 ng/mL TGFβ, 12 hours
Procedure: as §3, §4

Smad1/5/8 (BRE) reporter = assay: Smad1/5/8 BMP (BRE) luciferase reporter assay in AKR-2B cells; conditions: 1.5 μM polypeptide, 10 ng/mL BMP4, 12 hours
Procedure: as §3
FIGS. 4A-E. A point mutant of TAT-SH3-2 abolishes the inhibitory action on Smad3 responses. […] (E) AKR-2B cells were transiently transfected with a BMP (BRE), EGF (SRE), or PDGF (MMP-1) reporter construct and luciferase activity determined following 12 hour incubation in the absence (−) or presence (+) of the indicated ligand (10 ng/mL BMP4, EGF, or PDGF), inhibitor (10 μM Dorsomophin; 3 μM Lapatinib; 2 μM CP868) or TAT-SNX9(SH3) fusion polypeptide (1.5 μM). […]

[2] = test system: Smad2 targets (MMP2, Goosecoid, Furin, MixL); assay: RT-PCR/qPCR of Smad2 responsive genes in AKR-2B cells; conditions: 5 ng/mL TGFβ, 24 hours
Procedure: as §2, §1

Row | nuclear import of pSmad2 (pSmad2) | Molecule | nuclear import of pSmad3 (pSmad3) | TGFβ induction of Smad3 targets / Smad3-dependent transcriptional responses [1] | TGFβ-stimulated anchorage-independent growth in soft agar (AIG) (AKR-2B cells) | Smad3-dependent luciferase activity inhibited (Smad3 (3TP) reporter) | Smad2 signaling (luciferase) (Smad2 (ARE) reporter) | Smad1/5/8 (i.e., BMP) signaling (luciferase) (Smad1/5/8 (BRE) reporter) | induction of Smad2 targets [2]
1 | – | TAT-LC: SNX9 LC (low complexity) domain fused to cell penetrating TAT polypeptide; negative control (protein, left off: a dimerising Fc or GST) DGKDQFSCGNSVADQAFLDSLSASTAQASSSAASNNHQVGSGNDPWSAWSASKSGNWESSEGWGAQPEGAGAQRNTNTPNNWDTAFGHPQAYQGPATGDDDDWDEDWDGPKSSSYFKDSESADAGGAQRGNSRASSSSMKI | ineffective in modulating nuclear translocation | inert | inert | – | – | – | –
2 | no effect | TAT-SH3: TAT-SNX9(SH3) fusion polypeptide containing the full length SH3 domain (amino acids 1 to 62) (protein, left off: small tags and cut ends) MATKARVMYDFAAEPGNNELTVNEGEIITITNPDVGGGWLEGRNIKGERGLVPTDYVEILPS | inhibited nuclear import of pSmad3 in a dose-dependent manner | inhibited | inhibited | about 70% | no discernible effect | no discernible effect | unaffected
